Assay results from patent US20140178389A1.

Columns and labels:
[1] = target: recombinant human IL-1β (human) (UniProt P01584); experiment: flow cytometry of yeast-displayed scFv, titration of biotinylated IL-1b, 25 °C, 30 min, mean fluorescence [Parental]
[2] = target: recombinant cynomolgus IL-1β (cynomolgus) (UniProt P79182); experiment: as above
[3] = target: recombinant human IL-1β (human) (UniProt P01584); experiment: yeast surface display, flow cytometry with biotinylated antigen
[4] = target: recombinant cynomolgus IL-1β (cynomolgus) (UniProt P79182); experiment: as above

Chain of recombinant human IL-1β (human) (P01584 117-269): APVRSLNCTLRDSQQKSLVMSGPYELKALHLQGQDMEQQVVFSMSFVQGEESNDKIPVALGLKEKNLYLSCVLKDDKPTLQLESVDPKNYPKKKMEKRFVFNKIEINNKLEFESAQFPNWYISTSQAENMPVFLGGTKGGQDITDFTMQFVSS
Chain of recombinant cynomolgus IL-1β (cynomolgus) (P79182 117-268 limits assumed): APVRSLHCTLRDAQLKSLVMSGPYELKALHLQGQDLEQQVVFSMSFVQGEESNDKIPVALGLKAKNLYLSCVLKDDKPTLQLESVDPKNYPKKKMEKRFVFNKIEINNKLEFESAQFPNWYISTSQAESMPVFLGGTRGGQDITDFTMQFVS

B1: h1B12.1 scFv displayed on the surface of yeast (scFv, part only; not given: linker, domain order, yeast display partner, V domains shown, not shown: another chain or arm of the molecule; large carriers; small tags and cut ends)
VH: EVQLQESGPGLVKPSETLSLTCTVSGFSLSDYGVSWIRQPPGKGLEWLGLIWGGGDTYYNSPLKSRLTISKDNSKSQVSLKLSSVTAADTAVYYCAKQRTLWGYDLYGMDYWGQGTLVTVSS
VL: DTQVTQSPSSLSASVGDRVTITCITSTDIDVDMNWYQQKPGKPPKLLISQGNTLRPGVPSRFSSSGSGTDFTFTISSLQPEDFATYYCLQSDNLPLTFGQGTKLEIK
EC50 [1]: 15.1 nM | EC50 [2]: 23.5 nM | Kd [3]: 10 to 30 nM | Kd [4]: 10 to 30 nM
